Data as given in patent US20250270309A1 (Eli Lilly, published 2025).

T1: mouse IL-19 (mouse, UniProt Q8CJ70 25-176, limits assumed)
T1 construct: Used as immunogen and for panning; in the in-house ELISA it is the IL-19 secreted in mouse ear cultures; also called murine IL-19
T1 sequence (looked up): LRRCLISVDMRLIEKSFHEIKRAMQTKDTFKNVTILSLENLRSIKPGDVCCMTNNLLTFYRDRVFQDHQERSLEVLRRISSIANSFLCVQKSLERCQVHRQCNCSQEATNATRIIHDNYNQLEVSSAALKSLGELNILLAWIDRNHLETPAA

T2: human IL-19 (human, UniProt Q9UHD0 25-177)
T2 sequence: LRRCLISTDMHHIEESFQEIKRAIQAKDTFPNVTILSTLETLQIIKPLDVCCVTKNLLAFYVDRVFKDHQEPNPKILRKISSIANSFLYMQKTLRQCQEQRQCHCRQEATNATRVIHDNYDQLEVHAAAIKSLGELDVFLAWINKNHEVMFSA

T3: cyno IL-19 (cyno)
T3 chain: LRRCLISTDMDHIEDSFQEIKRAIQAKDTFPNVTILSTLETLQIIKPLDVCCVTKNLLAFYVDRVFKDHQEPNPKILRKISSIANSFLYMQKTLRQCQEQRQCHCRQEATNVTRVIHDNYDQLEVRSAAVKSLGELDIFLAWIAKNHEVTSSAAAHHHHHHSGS


Tests used:
[1] = biological target: T1, mouse IL-19; experiment: yeast surface display of single-chain Fab library, panning with mouse IL-19
[2] = biological target: T2, human IL-19; experiment: cell-based or functional assay
[3] = biological target: T3, cyno IL-19; experiment: cell-based or functional assay
[4] = biological target: T2, human IL-19; experiment: cell-based or functional assay; remark: listed apart in the source
[5] = biological target: T3, cyno IL-19; experiment: cell-based or functional assay
[6] = biological target: T2, human IL-19; experiment: MSD-SET solution equilibrium titration, 10 pM fixed biotinylated human IL-19, 37 C, mean of 3 experiments
Description: A Meso Scale Discovery Solution Equilibrium Titration (MSD-SET) assay, measured with a SECTOR® Imager 6000 (Meso Scale Diagnostics), is used to assess binding of exemplified IL-19 antibodies of the present invention to biotinylated human IL-19 (having the amino acid sequence set for in SEQ ID NO: 1).
Except as noted, all the reagents and materials are from Meso Scale Diagnostics (Rockville, Maryland). Recombinant human IL-19 reagents are biotinylated using the EZ-link sulfo-NHS-Biotin kit (Thermo Cat #A39257). Briefly, 20 pM biotinylated human IL-19 is mixed in a 1:1 ratio with a 3-fold dilution series of exemplified antibody samples of the present invention (mAb 1 and mAb 2) to give a final concentration of: 10 pM biotinylated human IL-19 and a 11-point 3-fold antibody gradient from 1 nM to 0.017 pM. The mix is incubated at 37° C. for 72 hrs. […] After washing three times with wash buffer, 150 μL of 1× Read Buffer T (Cat. #R92TC-1) is added to the well and analyzed on a SECTOR® Imager 6000 (Meso Scale Diagnostics) 5 min after buffer addition. […]
The equilibrium KD is determined by fitting a sigmoidal curve to the electrochemiluminescence (ECL) response vs. log (IL-19 concentration) using assay development tool kit graphed with normalized ECL values.

Binder | binding result [1] | IC50 for human IL-19 (IL-19 induced IL20Ra/IL20Rb receptor dimerization signal, U2OS PathHunter cells) [2] [nM] | IC50 for Cyno IL-19 (IL-19 induced IL20Ra/IL20Rb receptor dimerization signal, U2OS PathHunter cells) [3] [nM] | IC50 with human IL-19 (IL-19 induced phospho-STAT3 signal, A431 cells) [4] [nM] | IC50 with Cyno IL-19 (IL-19 induced phospho-STAT3 signal, A431 cells) [5] [nM] | Kd [6] [nM]
anti-murine IL-19 Ab mAb4 (antibody, V domains shown, also called anti-murine IL-19 Ab4) VH: QEQLKESGGGLVQPGGSLKLSCKASGFPLSSYGFSWVRQAPGKGLEWIGYLDPVFGSTLSAHTVNGRLTISSDNAQNTLYLQLNSLTAADTATYFCARGIGYVYYGYTYDLWGPGTLVTVSS VL: DIVMTQTPASVEAAVGGTVTIKCSASASIYEYLSWYQQKPGQRPKLLIYGASVLTDGVSSRFKGSGSGTEFTLTISDLEAADAATYYCQSYNDGSSSGDAHVFGGGTEVVVK | binds | – | – | – | – | –
Ab1 (antibody, human IgG4 S228P, kappa, F234A L235A, V domains shown, Anti-human IL-19 antibody; Detected with anti-human IgG4 reagents in the PK ELISA, so IgG4; also called mAb 1; mAb1) VH: not shown VL: AIQLTQSPSSLSASVGDRVTITCRASQDIRSDFGWYQQKPGKAPKLLIYAASSLQSGVPSRFSGSGSGTDFTLTISSLQPEDFATYYCLQDYNYPWTFGQGTKVEIKR | – | 3.46 | 2.79 | 2.31 | 1.82 | 0.0131

Results, then the binder that gave them:

binding result [1] | IC50 for human IL-19 (IL-19 induced IL20Ra/IL20Rb receptor dimerization signal, U2OS PathHunter cells) [2] [nM] | IC50 for Cyno IL-19 (IL-19 induced IL20Ra/IL20Rb receptor dimerization signal, U2OS PathHunter cells) [3] [nM] | IC50 with human IL-19 (IL-19 induced phospho-STAT3 signal, A431 cells) [4] [nM] | IC50 with Cyno IL-19 (IL-19 induced phospho-STAT3 signal, A431 cells) [5] [nM] | Kd [6] [nM] | Binder
– | 3.47 | 2.87 | 2.21 | 1.84 | 0.0068 | Ab2 (antibody, human IgG4 S228P, kappa, F234A L235A, V domains shown, Anti-human IL-19 antibody; also called mAb 2; mAb2) VH: not shown VL: AIQLTQSPSSLSASVGDRVTITCRASQDIRSDFGWYQQKPGKAPKLLIYAASSLQSGVPSRFSGSGSGTDFTLTISSLQPEDFATYYCLQDYNYPWTFGQGTKVEIKR
binds | – | – | – | – | – | anti-murine IL-19 Ab mAb 3 (antibody, V domains shown, also called anti-murine IL-19 Ab3) VH: QQLEESGGGLAKPEGSLTLTCKTSGFDLSSTYYMSWVRQAPGKGLEWIASIVTSGRSGASYYANWAKGRFTISKTSSTTVTLQMTSLAAADTASYFCVRDLPAPTDDRGLWGPGTLVVVSS VL: AQVLTQTPSSVSEPVGGTVTINCQASESVYNKNWLSWFQQKPGQPPKLLIYDSSDLASGVPSRFKGSGSGTHFTLTISDVQCGDAATYYCGGSYTDTYVFGGGTEVVVK
